Results: patent publication US20070093443A1 (CATALYST BIOSCIENCES, published 2007)
Residue numbers refer to the chain shown, from its start. Numbers in names are those of the source. One block for each binder: values may come before it.

How the values were obtained:
Complement C2 (human) = target: T1, Complement C2 (human) (human, UniProt P06681 21-752); assay: cell-based or functional assay
T1 sequence: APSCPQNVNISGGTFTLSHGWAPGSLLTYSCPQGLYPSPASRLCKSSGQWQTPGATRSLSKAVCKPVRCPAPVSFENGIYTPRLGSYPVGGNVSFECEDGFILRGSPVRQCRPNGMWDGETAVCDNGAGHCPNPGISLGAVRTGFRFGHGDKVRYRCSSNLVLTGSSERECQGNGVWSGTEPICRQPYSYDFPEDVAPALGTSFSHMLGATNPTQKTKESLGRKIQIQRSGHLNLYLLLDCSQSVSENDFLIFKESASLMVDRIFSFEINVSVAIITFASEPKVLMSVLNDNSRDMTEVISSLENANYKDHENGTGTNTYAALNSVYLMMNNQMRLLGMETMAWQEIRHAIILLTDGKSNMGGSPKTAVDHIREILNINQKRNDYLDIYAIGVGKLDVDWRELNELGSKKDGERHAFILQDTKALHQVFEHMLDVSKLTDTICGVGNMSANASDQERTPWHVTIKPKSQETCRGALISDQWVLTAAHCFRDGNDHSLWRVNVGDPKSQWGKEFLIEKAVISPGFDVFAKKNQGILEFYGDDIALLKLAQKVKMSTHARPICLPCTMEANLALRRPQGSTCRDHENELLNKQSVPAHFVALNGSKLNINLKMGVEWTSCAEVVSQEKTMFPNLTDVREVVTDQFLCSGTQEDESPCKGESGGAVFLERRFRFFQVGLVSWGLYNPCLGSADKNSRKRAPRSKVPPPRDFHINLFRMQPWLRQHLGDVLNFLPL

M84R ecotin = target: T2, M84R ecotin (UniProt P23827 21-162); assay: active site titration of purified CB155 with M84R ecotin, residual Ac-RQAR-AMC activity
T2 construct: Position 84 is probably counted on mature ecotin, not on the precursor entry; also called ecotin M84R
Description: The purified protein was assayed for specific activity, purity, and endotoxin levels. The specific activity or amount of active protease in each prep was determined by active site titration by incubation with an inhibitor that binds in the active site of the functional protease at varying concentrations followed by addition to a fluorogenic substrate for measurement of substrate proteolysis. The amount of active enzyme was calculated from a plot of the residual protease activity against the inhibitor concentration where the intercept corresponds to the concentration of active protease. […] Enzyme activity was monitored at 30° C. in the presence of 40 μM Ac-RQAR-AMC in assay buffer containing 50 mM Tris pH 8.0, 50 mM NaCl, and 0.01% Tween-20 (for trypsin activity, 10 mM CaCl2 was added) on a Gemini XPS spectrafluorimeter (Excitation: 380 nm; Emission: 450 nm; Cut-off: 435 mn). Purity of the protein preparation was assessed by resolution of the protein product on SDS-PAGE followed by staining with Coomassie Blue. […] The level of endotoxin in each prep was determined by Liumlus Amebocyte Lysate Chromo-LAL assay (Associated of Cape Cod) according to the manufacturer's protocol with the following modifications. […]

[1] = target: T3, alpha-2 macroglobulin (in human plasma) (human, UniProt P01023 24-1474); assay: Ac-RQAR-AMC activity of protease after 5 min in human citrated plasma, with and without M84R ecotin
T3 construct: Not purified: the endogenous protein of the plasma
T3 sequence (looked up): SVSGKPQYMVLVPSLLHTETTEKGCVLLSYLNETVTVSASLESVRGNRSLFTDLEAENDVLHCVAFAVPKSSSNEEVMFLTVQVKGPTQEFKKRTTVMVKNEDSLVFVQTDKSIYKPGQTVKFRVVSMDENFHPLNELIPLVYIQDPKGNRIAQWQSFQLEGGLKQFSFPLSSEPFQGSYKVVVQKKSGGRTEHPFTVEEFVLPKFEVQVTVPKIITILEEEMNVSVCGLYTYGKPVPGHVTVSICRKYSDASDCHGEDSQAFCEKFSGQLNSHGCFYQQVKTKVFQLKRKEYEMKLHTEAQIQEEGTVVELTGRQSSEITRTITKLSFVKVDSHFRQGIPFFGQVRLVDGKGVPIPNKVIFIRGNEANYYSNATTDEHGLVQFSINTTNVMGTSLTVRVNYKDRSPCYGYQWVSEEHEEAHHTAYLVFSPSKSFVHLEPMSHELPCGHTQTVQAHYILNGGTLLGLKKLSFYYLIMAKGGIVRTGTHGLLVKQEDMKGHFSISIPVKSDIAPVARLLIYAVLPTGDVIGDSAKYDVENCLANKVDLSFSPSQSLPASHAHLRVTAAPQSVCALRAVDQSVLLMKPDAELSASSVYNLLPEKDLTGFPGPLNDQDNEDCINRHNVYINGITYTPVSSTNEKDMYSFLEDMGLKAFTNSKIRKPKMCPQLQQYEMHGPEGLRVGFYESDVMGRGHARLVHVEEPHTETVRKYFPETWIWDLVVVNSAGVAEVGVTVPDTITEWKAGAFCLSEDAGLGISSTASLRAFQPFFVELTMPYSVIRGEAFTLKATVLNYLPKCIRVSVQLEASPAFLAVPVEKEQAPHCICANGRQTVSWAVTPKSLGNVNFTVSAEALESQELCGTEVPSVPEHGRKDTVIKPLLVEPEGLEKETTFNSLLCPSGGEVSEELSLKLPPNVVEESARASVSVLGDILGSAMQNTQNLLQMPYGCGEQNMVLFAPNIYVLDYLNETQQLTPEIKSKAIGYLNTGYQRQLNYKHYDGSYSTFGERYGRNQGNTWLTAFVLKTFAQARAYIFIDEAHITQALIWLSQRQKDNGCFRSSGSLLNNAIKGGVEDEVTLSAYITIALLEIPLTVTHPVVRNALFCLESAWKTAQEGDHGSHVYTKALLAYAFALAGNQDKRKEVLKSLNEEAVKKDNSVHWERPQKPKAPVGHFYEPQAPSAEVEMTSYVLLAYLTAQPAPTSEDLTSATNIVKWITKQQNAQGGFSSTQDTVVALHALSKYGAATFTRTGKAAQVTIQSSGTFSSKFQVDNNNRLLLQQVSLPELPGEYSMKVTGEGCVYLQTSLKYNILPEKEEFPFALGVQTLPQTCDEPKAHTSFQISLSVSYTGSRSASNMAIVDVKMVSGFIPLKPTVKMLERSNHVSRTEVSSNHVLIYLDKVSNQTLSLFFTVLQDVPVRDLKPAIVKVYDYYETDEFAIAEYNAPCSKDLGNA
Description: In addition, the percent protease unbound by alpha-2 macroglobulin (a2M) also was determined. Inactivation of a protease by alpha-2 macroglobulin traps the protease in a complex where it is still able to turn over small fluorescent substrates, but unable to access large protein substrates. This property of alpha-2 macroglobulin complicates the assessment of a proteases activity in plasma. To determine the actual activity of the free, uncomplexed protease in plasma, a two step measurement is required. First, the sample's activity on fluorescent substrates is measured. […] The percent unbound by alpha-2 macroglobulin activity is the percentage of the plasma residual activity that is inhibited by the addition of the ecotin. Briefly, in a 0.2 mL PCR tube, 1 μL 10× protease was mixed with 9 μL human plasma in citrate (Innovative Research). A uninhibted control also was prepeared containing 1 μL 10× protease mixed with 9 μL PBST. The mixtures were incubated for 5 minutes at 37° C. The samples were diluted 250 fold in PBST and stored on ice. Two 50 μL aliquots for each sample were transferred to an opaque assay plate (Costar #3694) containing 2 μL PBST or 2 μL 520 nM M84R ecotin. The plates were incubated 10 minutes at room temperature. Five microliters 0.4 mM Ac-RQAR-AMC substrate was added and the fluorescence was measured over time with a SpectraMax M5 spectrafluorometer (Molecular Devices) set to read every 20 seconds for 30 minutes at 30° C. (Ex: 380 nm, EM: 450 nm, Cut-off: 435 nm). The percent unbound by alpha-2 macroglobulin was calculated with the following formula: (1-([(Protease in plasma/Protease in PBST)−(Protease in plasma+ecotin/Protease in PBST)]/(Protease in plasma/Protease in PBST)))*100.

- IC50 based on gel densitometry of C2 cleavage products (purified C2) (Complement C2 (human)): 2.2 nM
- IC50 of the proteases for cleavage of C2 (Western blot densitometry, 5% human plasma, 1 h 37 C) (Complement C2 (human)): 18.4 nM
- binding result (M84R ecotin): binds
B1: modified MT-SP1 CB155 (Y146D/K224F) protease domain (enzyme)
chain: VVGGTDADEGEWPWQVSLHALGQGHICGASLISPNWLVSAAHCYIDDRGFRYSDPTQWTAFLGLHDQSQRSAPGVQERRLKRIISHPFFNDFTFDYDIALLELEKPAEYSSMVRPICLPDASHVFPAGKAIWVTGWGHTQDGGTGALILQKGEIRVINQTTCENLLPQQITPRMMCVGFLSGGVDSCQGDSGGPLSSVEADGRIFQAGVVSWGDGCAQRNFPGVYTRLPLFRDWIKENTGV
- IC50 for hemolysis in C2 depleted serum supplemented with protease-treated C2 (Complement C2 (human)): 17 nM

- % Unbound by a2M [1]: 0%
B2: modified MT-SP1 CB490 (I41T/Y146E/G151L/Q175D/K224R) protease domain (enzyme)
chain: B1 chain with I26T, D141E, G145L, Q169D, F221R
